Read-outs that look alike come from different tables or passages of the source.
Assay: In vivo biodistribution by organ and tissue extraction
Design: species or system male Wistar rats
Settings: for tissue uptake dose at 4 h / SUV at 24 h / tissue uptake dose at 24 h / SUV at 48 h / tissue uptake dose at 48 h / SUV at 1 h / tissue uptake dose at 1 h / SUV at 4 h / tissue uptake dose at 5 min / SUV at 5 min / tissue uptake dose: male, Wistar, total radioactivity; for tissue uptake dose at 4 h / SUV at 4 h: 240 min p.i.; for tissue uptake dose at 4 h / SUV at 24 h / tissue uptake dose at 24 h / SUV at 48 h / tissue uptake dose at 48 h / SUV at 1 h / tissue uptake dose at 1 h / SUV at 4 h / tissue uptake dose at 5 min / SUV at 5 min: mean ± SD; for SUV at 24 h / tissue uptake dose at 24 h: 1440 min p.i.; for SUV at 48 h / tissue uptake dose at 48 h: 2880 min p.i.; for SUV at 1 h / tissue uptake dose at 1 h: 60 min p.i.; for tissue uptake dose at 5 min / SUV at 5 min: 5 min p.i.; for tissue uptake dose: whole body, end of observation (Fig. 7c), time not given, mean ± SEM, read-out: remaining activity in the body; for AUC Kidney / AUC Liver: calculated between 1 and 48 h; for t1/2 Blood / t1/2 Kidney / t1/2 Liver: calculated from 24 to 48 h
Protocol: The present study includes data obtained from a total of 50 animals. Four animals (body weight 227 ± 10 g) for each time point were injected intravenously into a tail vein or subcutaneously with approximately 0.3 MBq ([…]) [^64Cu]Cu-NOTA-HsTX1[R14A] conjugate in 0.5 mL electrolyte solution E-153 (Serumwerk Bernburg, Germany). Animals were euthanised at 5, 60, 240, 1440 and 2880 min post-injection. Blood and the major organs were collected, weighed, and counted in a cross-calibrated γ-counter (Isomed 1000, Isomed GmbH, Dresden) and Wallac WIZARD Automatic Gamma Counter (PerkinElmer, Germany). The radioactivity of the tissue samples was decay-corrected and calibrated by comparing the counts in tissue with the counts in aliquots of the injected radiotracer that had been measured in the γ-counter at the same time. The activity in the selected organs was expressed as percent-injected dose per organ (% ID) and the activity concentration in tissues and organs as standardised uptake value (SUV). Values are quoted as mean ± standard error of mean (SEM) for each group of four animals.

[1] = testes, iv, 0.3 MBq, rat, i.v., n=4, read-out: Testes activity amount
[2] = testes, sc, 0.3 MBq, rat, s.c., n=4, read-out: Testes SUV
[3] = testes, sc, 0.3 MBq, rat, s.c., n=4, read-out: Testes activity amount
[4] = thymus, iv, 0.3 MBq, rat, i.v., n=4, read-out: Thymus activity amount
[5] = thymus, iv, 0.3 MBq, rat, i.v., n=8, read-out: Thymus activity amount
[6] = thymus, iv, rat, i.v., n=4, read-out: Thymus SUV
[7] = thymus, iv, rat, i.v., n=8, read-out: Thymus SUV
[8] = thymus, sc, 0.3 MBq, rat, s.c., n=4, read-out: Thymus activity amount
[9] = thymus, sc, rat, s.c., n=4, read-out: Thymus SUV
[10] = thyroid, iv, 0.3 MBq, rat, i.v., n=4, read-out: Thyroid activity amount
[11] = thyroid, iv, 0.3 MBq, rat, i.v., n=8, read-out: Thyroid activity amount
[12] = thyroid, sc, 0.3 MBq, rat, s.c., n=4, read-out: Thyroid activity amount
[13] = white adipose tissue, iv, 0.3 MBq, rat, i.v., n=4, read-out: WAT (white adipose tissue) SUV
[14] = white adipose tissue, iv, 0.3 MBq, rat, i.v., n=8, read-out: WAT (white adipose tissue) SUV
[15] = white adipose tissue, sc, 0.3 MBq, rat, s.c., n=4, read-out: WAT (white adipose tissue) SUV
[16] = whole blood, iv, 0.3 MBq, rat, i.v., n=4, read-out: Blood SUV

CSCC[C@@H]1NC(=O)[C@@H]2CSSC[C@H](NC(=O)[C@H](CO)NC(=O)[C@H](C)NC(=O)COCCOCCNC(=O)CN3CCN(CC(=O)O)CCN(CC(=O)O)CC3)C(=O)N[C@@H](CCCNC(=N)N)C(=O)N[C@@H]([C@@H](C)O)C(=O)N3CCC[C@H]3C(=O)N[C@@H](CCCCN)C(=O)N[C@@H](CC(=O)O)C(=O)N[C@H]3CSSC[C@H](NC(=O)[C@H](CCCCN)NC(=O)[C@H](CCCNC(=N)N)NC(=O)[C@H](CC(N)=O)NC1=O)C(=O)N[C@@H](CCCCN)C(=O)N[C@H]1CSSC[C@H](NC(=O)[C@@H]4CCCN4C(=O)[C@H](CC(=O)O)NC(=O)[C@H](C)NC3=O)C(=O)N[C@@H](C)C(=O)N[C@@H](CCCCN)C(=O)N[C@@H](CCC(=O)O)C(=O)N[C@@H]([C@@H](C)O)C(=O)NCC(=O)N[C@@H](CSSC[C@@H](C(N)=O)NC(=O)[C@H](CCCNC(=N)N)NC(=O)[C@H](CC(N)=O)NC1=O)C(=O)N1CCC[C@H]1C(=O)N[C@@H](Cc1ccc(O)cc1)C(=O)NCC(=O)N[C@@H](CCCCN)C(=O)N2 [[^64Cu]Cu-NOTA-HsTX1[R14A], metal not drawn]
tissue uptake dose at 4 h [1]: 0.21 ± 0.01 %ID | SUV at 24 h (testes, iv, 0.3 MBq, rat, i.v., n=8, read-out: Testes SUV): 0.87 ± 0.34 SUV | tissue uptake dose at 24 h (testes, iv, 0.3 MBq, rat, i.v., n=8, read-out: Testes activity amount): 1.05 ± 0.13 %ID | SUV at 48 h (testes, iv, 0.3 MBq, rat, i.v., n=4, read-out: Testes SUV): 0.5 ± 0.02 SUV | tissue uptake dose at 48 h [1]: 0.76 ± 0.02 %ID | SUV at 1 h [2]: 0.15 ± 0.01 SUV | tissue uptake dose at 1 h [3]: 0.21 ± 0.01 %ID | SUV at 4 h [2]: 0.12 ± 0.01 SUV | tissue uptake dose at 4 h [3]: 0.2 ± 0.03 %ID | SUV at 24 h [2]: 0.54 ± 0.02 SUV | tissue uptake dose at 24 h [3]: 0.92 ± 0.06 %ID | SUV at 48 h [2]: 0.44 ± 0.01 SUV | tissue uptake dose at 48 h [3]: 0.63 ± 0.06 %ID | tissue uptake dose at 5 min [4]: 0.37 ± 0.07 %ID | tissue uptake dose at 1 h [5]: 0.37 ± 0.08 %ID | tissue uptake dose at 4 h [4]: 0.37 ± 0.04 %ID | tissue uptake dose at 24 h [5]: 0.21 ± 0.03 %ID | tissue uptake dose at 48 h [4]: 0.17 ± 0.02 %ID | SUV at 5 min [6]: 1.51 ± 0.08 SUV | SUV at 1 h [7]: 1.33 ± 0.19 SUV | SUV at 4 h [6]: 1.07 ± 0.02 SUV | SUV at 24 h [7]: 0.74 ± 0.15 SUV | SUV at 48 h [6]: 0.53 ± 0.02 SUV | tissue uptake dose at 1 h [8]: 0.46 ± 0.01 %ID | tissue uptake dose at 4 h [8]: 0.43 ± 0.04 %ID | tissue uptake dose at 24 h [8]: 0.22 ± 0.01 %ID | tissue uptake dose at 48 h [8]: 0.16 ± 0.02 %ID | SUV at 1 h [9]: 1.15 ± 0.03 SUV | SUV at 4 h [9]: 1.07 ± 0.11 SUV | SUV at 24 h [9]: 0.63 ± 0.05 SUV | SUV at 48 h [9]: 0.46 ± 0.05 SUV | tissue uptake dose at 5 min [10]: 0.07 %ID | tissue uptake dose at 1 h [11]: 0.11 ± 0.02 %ID | tissue uptake dose at 4 h [10]: 0.12 ± 0.01 %ID | tissue uptake dose at 24 h [11]: 0.08 ± 0.01 %ID | tissue uptake dose at 48 h [10]: 0.07 ± 0.02 %ID | tissue uptake dose at 1 h [12]: 0.13 ± 0.02 %ID | tissue uptake dose at 4 h [12]: 0.11 ± 0.02 %ID | tissue uptake dose at 24 h [12]: 0.09 ± 0.05 %ID | tissue uptake dose at 48 h [12]: 0.03 ± 0.02 %ID | SUV at 5 min [13]: 0.28 ± 0.06 SUV | SUV at 1 h [14]: 0.19 ± 0.07 SUV | SUV at 4 h [13]: 0.15 SUV | SUV at 24 h [14]: 0.19 ± 0.09 SUV | SUV at 48 h [13]: 0.34 ± 0.08 SUV | SUV at 1 h [15]: 0.25 ± 0.05 SUV | SUV at 4 h [15]: 0.17 ± 0.05 SUV | SUV at 24 h [15]: 0.22 ± 0.01 SUV | SUV at 48 h [15]: 0.17 ± 0.08 SUV | SUV at 4 h [16]: 0.51 ± 0.02 SUV | SUV at 24 h (whole blood, iv, 0.3 MBq, rat, i.v., n=8, read-out: Blood SUV): 0.71 ± 0.16 SUV | SUV at 48 h [16]: 0.38 ± 0.02 SUV | SUV at 1 h (whole blood, sc, 0.3 MBq, rat, s.c., n=4, read-out: Blood SUV): 0.65 ± 0.11 SUV | tissue uptake dose (iv, 0.3 MBq, rat, i.v., 8 animals): 48 ± 3 %ID | tissue uptake dose (sc, 0.3 MBq, rat, s.c., 4 animals): 45 ± 3 %ID | brain uptake (rat): negligible | AUC Kidney (rat, i.v., n=8): 1417 ± 102 SUV x h | AUC Liver (rat, i.v., n=8): 92,7 ± 11,0 SUV x h | t1/2 Blood (rat, i.v., n=8): 49,5 h | t1/2 Kidney (rat, i.v., n=8): 14,7 h | t1/2 Liver (rat, i.v., n=8): 39,5 h | Cmax Kidney (rat, i.v., n=8): 74,8 ± 12,8 SUV | Cmax Liver (rat, i.v., n=8): 2,50 ± 0,57 SUV | Peak time Blood (rat, i.v., n=8): 1 h | Peak time Kidney (rat, i.v., n=8): 1 h | Peak time Liver (rat, i.v., n=8): 24 h | AUC Kidney (rat, s.c., n=4): 1285 ± 57 SUV x h | AUC Liver (rat, s.c., n=4): 87,8 ± 9,5 SUV x h | t1/2 Blood (rat, s.c., n=4): 46,4 h | t1/2 Kidney (rat, s.c., n=4): 18,9 h | t1/2 Liver (rat, s.c., n=4): 35,9 h | Cmax Blood (rat, s.c., n=4): 0,65 ± 0,11 SUV | Cmax Kidney (rat, s.c., n=4): 70,2 ± 4,1 SUV | Cmax Liver (rat, s.c., n=4): 2,23 ± 0,32 SUV | Peak time Blood (rat, s.c., n=4): 1 h | Peak time Kidney (rat, s.c., n=4): 4 h | Peak time Liver (rat, s.c., n=4): 24 h | biological half-life of the total activity in the rat body (s.c.): 42.0 h
